Our source for the stoichiometry N values is PMC8500918.

This assay deals with Cadherin-11 extracellular domain 1 (EC1), wild type. Kind of assay: NMR.

Chain of Cadherin-11 extracellular domain 1 (EC1), wild type (P55288 1-98): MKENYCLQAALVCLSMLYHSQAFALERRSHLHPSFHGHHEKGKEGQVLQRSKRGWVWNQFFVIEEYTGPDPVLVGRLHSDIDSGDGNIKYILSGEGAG

For the substance “Cadherin-11 extracellular domain 1 (EC1), wild type (domain or fragment)”, the stoichiometry N – broadly, the number of molecules, sites or subunits per partner or assembly – came out at 2.
